Numbering of substitutions follows the chain as printed.

T1: Recombinant monkey OX-40 protein (monkey)
T1 chain: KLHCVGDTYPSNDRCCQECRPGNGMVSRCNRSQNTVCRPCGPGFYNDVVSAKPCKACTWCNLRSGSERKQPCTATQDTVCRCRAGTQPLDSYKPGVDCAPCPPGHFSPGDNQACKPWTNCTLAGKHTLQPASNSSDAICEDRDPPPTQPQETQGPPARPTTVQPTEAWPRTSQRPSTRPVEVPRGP

T2: Recombinant human OX40-His protein (human, UniProt P43489 29-214, limits assumed)
T2 construct: Recombinant antigen protein; also called recombinant human OX-40 protein; human OX-40 protein; not shown: His tag
T2 sequence (looked up): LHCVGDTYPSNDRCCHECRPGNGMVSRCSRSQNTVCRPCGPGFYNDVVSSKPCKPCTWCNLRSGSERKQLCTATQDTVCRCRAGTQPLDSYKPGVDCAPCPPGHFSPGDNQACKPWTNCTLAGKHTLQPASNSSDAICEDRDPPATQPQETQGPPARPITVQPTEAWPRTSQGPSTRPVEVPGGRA

T3: OX40 on a functional cell line overexpressing OX40 (UniProt P43489 29-277, limits assumed)
T3 sequence (looked up): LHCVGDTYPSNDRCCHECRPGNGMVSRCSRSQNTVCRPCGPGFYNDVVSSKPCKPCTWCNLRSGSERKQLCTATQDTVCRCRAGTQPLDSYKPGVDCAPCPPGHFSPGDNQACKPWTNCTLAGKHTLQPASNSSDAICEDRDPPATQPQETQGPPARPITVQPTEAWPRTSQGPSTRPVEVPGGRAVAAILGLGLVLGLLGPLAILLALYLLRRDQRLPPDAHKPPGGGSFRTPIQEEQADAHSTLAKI

B1: Chimeric antibody (anti-human OX40, recombinant, human IgG1/kappa constant regions) (antibody, V domains shown)
VH: QIQLVQSGPELKKPGETVKISCKASGYTFTDYSMHWVKQAPGKGLKWMGWISTETGEPTYADDFKGRFAFSLETSASTAYLQIKNLKNEDTASYFCARVRPWYLAVWGAGTTVTVSS
VL: DIQMTQTTSSLSASLGDRVTISCRASQDISNYLNWYQQKPDGTVKLLIYYTSRLYSGVPSRFSGSGSGADYSLTVSNLEQEDIATYFCQQANTLPLTFGAGTKLELK
B2: AH02916 humanized anti-human OX40 monoclonal antibody (recombinant human IgG1/kappa) (antibody, V domains shown)
VH: QVQLVQSGAEVKKPGASVKVSCKASGYTFTDYSMHWVKQAPGQGLEWMGWISTETGEPTYADDFKGRVTITLDTSASTAYMELSSLRSEDTAVYYCARVRPWYLAVWGQGTLVTVSS
VL: DIQMTQSPSSLSASVGDRVTITCRASQDISNYLNWYQQKPGKAVKLLIYYTSRLYSGVPSRFSGSGSGTDYTFTISSLQPEDIATYFCQQANTLPLTFGGGTKLEIK
B3: AH02913 humanized anti-human OX40 monoclonal antibody (recombinant human IgG1/kappa) (antibody, V domains shown)
VH: B2 VH with A9P, Y95F
VL: B2 VL
B4: AH02906 humanized anti-human OX40 monoclonal antibody (recombinant human IgG1/kappa) (antibody, V domains shown)
VH: B2 VH with V68F
VL: B2 VL with V44P, F73L
B5: AH02925 humanized anti-human OX40 monoclonal antibody (recombinant human IgG1/kappa) (antibody, V domains shown)
VH: B2 VH with L72R, M81L, L83I, Y95F
VL: B2 VL with Y71F, F73L, F87Y
B6: AH02922 humanized anti-human OX40 monoclonal antibody (recombinant human IgG1/kappa) (antibody, V domains shown)
VH: B2 VH with V20I, K38R, G44R, L72R, A105V
VL: B2 VL with V44P, F73L, F87Y
B7: AH02915 humanized anti-human OX40 monoclonal antibody (recombinant human IgG1/kappa) (antibody, V domains shown)
VH: B2 VH with M81L, L83I
VL: B2 VL with V44P, Y71F, F73L
B8: AH02917 humanized anti-human OX40 monoclonal antibody (recombinant human IgG1/kappa) (antibody, V domains shown)
VH: B2 VH with V68F, Y95F
VL: B2 VL with Y71F, F73L, F87Y
B9: AH02906, prokaryotically expressed antibody product (back-mutation screening) (Fab, V domains shown)
VH: B2 VH with V68F
VL: B2 VL with V44P, F73L
B10: AH02916, prokaryotically expressed antibody product (back-mutation screening) (Fab, V domains shown)
VH: B2 VH
VL: B2 VL
B11: AH02917, prokaryotically expressed antibody product (back-mutation screening) (Fab, V domains shown)
VH: B2 VH with V68F, Y95F
VL: B2 VL with Y71F, F73L, F87Y
B12: AH02913, prokaryotically expressed antibody product (back-mutation screening) (Fab, V domains shown)
VH: B2 VH with A9P, Y95F
VL: B2 VL
B13: AH02915, prokaryotically expressed antibody product (back-mutation screening) (Fab, V domains shown)
VH: B2 VH with M81L, L83I
VL: B2 VL with V44P, Y71F, F73L
B14: AH02925, prokaryotically expressed antibody product (back-mutation screening) (Fab, V domains shown)
VH: B2 VH with L72R, M81L, L83I, Y95F
VL: B2 VL with Y71F, F73L, F87Y
B15: AH02919, prokaryotically expressed antibody product (back-mutation screening) (Fab, V domains shown)
VH: B2 VH with L72R, M81L, L83I, Y95F
VL: B2 VL with F73L, F87Y
B16: AH02921, prokaryotically expressed antibody product (back-mutation screening) (Fab, V domains shown)
VH: B2 VH with A9P, K38R, V68F, M81L, L83I, Y95F, A105T
VL: B2 VL with V44P, F73L
B17: AH02923, prokaryotically expressed antibody product (back-mutation screening) (Fab, V domains shown)
VH: B2 VH with K38R, V68F, I70F, M81L
VL: B2 VL with F87Y
B18: AH02922, prokaryotically expressed antibody product (back-mutation screening) (Fab, V domains shown)
VH: B2 VH with V20I, K38R, G44R, L72R, A105V
VL: B2 VL with V44P, F73L, F87Y

One experiment addresses T1, Recombinant monkey OX-40 protein. Put plainly: ELISA, plate coated with recombinant monkey OX-40 protein, antibody titrated. On the technique in general: ELISA stands for enzyme-linked immunosorbent assay.
Take B1: the half-maximal effective concentration (EC50) turned out to be 0.0618 µg/mL.

For B2, the EC50 is 0.0323 µg/mL.

As for B3, the 50% effective concentration (EC50) is 0.0353 µg/mL.

In a further experiment the target is T2, Recombinant human OX40-His protein. In words: SPR (Biacore 8K), OX40-HIS coupled to chip, antibody as analyte, 1:1 binding model. As for the experimental part: The chip surface was equilibrated with HBS-EP buffer at a flow rate of 10 μl/min for 5 min, and then a 1:1 mixture of “NHS+EDC” was injected at a flow rate of 10 μl/min for 100 sec to activate the chip. The antigen protein (OX40-HIS) diluted in 10 mM sodium acetate buffer was injected for about 180 sec at a flow rate of 10 μl/min for coupling, and finally ethanolamine was injected for 200 sec at a flow rate of 10 μl/min to block the surface.
Three pre-cycles were performed with the HBS-EP buffer as a sample to balance the chip to stabilize the baseline. A low concentration of antibody was injected at a flow rate of 30 μl/min for 200 sec, to allow the antigen to bind to the antibody, and then the buffer was injected at a flow rate of 30 μl/min for 400 sec for dissociation. 10 mM Gly-HCl pH2.0 was injected three times each for 30 sec at a flow rate of 30 μl/min for regeneration, to complete one cycle.
The antibody concentration was changed to carry out the cycle for measurement at a next gradient concentration until all gradient concentrations (2.5 nM, 5 nM, 10 nM, 20 nM, 40 nM, and […]) and the replicate (such as 20 nM) were tested. The experimental data was double subtracted (minus the background values of the control channel and zero concentration), and fitted to the “1:1 binding” model in the Biacore 8K evaluation software. Biacore 8K was used to determine the affinity of the antibody to the OX40-HIS recombinant protein.
In general terms: SPR reads the build-up and loss of mass on a sensor chip optically.
On to B1, for which the Kd was found to be 2.4 nM, the koff was 0.000814 s⁻¹ and the kon came out at 339000 M⁻¹ s⁻¹.

For the molecule B4, the Kd amounted to 2.83 nM, the koff is 0.00116 s⁻¹ and the kon worked out at 408000 M⁻¹ s⁻¹.

Consider B2, for which the Kd was 2.46 nM, the koff stood at 0.000659 s⁻¹ and the kon was determined as 268000 M⁻¹ s⁻¹.

For B5, the Kd came out at 2.22 nM, the koff is 0.00115 s⁻¹ and the kon turned out to be 520000 M⁻¹ s⁻¹.

Turning to B6, the Kd was determined as 1.36 nM, the koff was found to be 0.00029 s⁻¹ and the kon amounted to 213000 M⁻¹ s⁻¹.

As for B3, the Kd is 1.76 nM, the koff was 0.00067 s⁻¹ and the kon was found to be 381000 M⁻¹ s⁻¹.

With B7, the Kd came out at 3 nM, the dissociation rate constant (koff) was determined as 0.00142 s⁻¹ and the kon was 472000 M⁻¹ s⁻¹.

As to B8, the Kd turned out to be 2.6 nM, the koff stood at 0.00106 s⁻¹ and the kon was found to be 407000 M⁻¹ s⁻¹.

For the next experiment the target is unchanged. Put plainly: kinetic ranking (RU, 1:1 binding model), prokaryotically expressed antibody product as ligand, OX40-His as analyte.
For B9, the Kd amounted to 15.6 nM, the koff came out at 0.00511 s⁻¹ and the kon turned out to be 328000 M⁻¹ s⁻¹.

Consider B10, for which the dissociation constant (Kd) turned out to be 15.7 nM, the koff was 0.00384 s⁻¹ and the kon is 245000 M⁻¹ s⁻¹.

Take B11: the Kd was 13.7 nM, the dissociation rate constant (koff) turned out to be 0.00396 s⁻¹ and the kon was determined as 288000 M⁻¹ s⁻¹.

Consider B12, for which the Kd amounted to 12.5 nM, the koff was found to be 0.00425 s⁻¹ and the on-rate (kon) was 339000 M⁻¹ s⁻¹.

Consider B13, for which the Kd turned out to be 14.3 nM, the koff was determined as 0.00307 s⁻¹ and the kon was found to be 215000 M⁻¹ s⁻¹.

Regarding B14, the Kd turned out to be 14.9 nM, the koff was 0.00439 s⁻¹ and the kon was 295000 M⁻¹ s⁻¹.

As to B15, the Kd came to 15.1 nM, the koff is 0.00505 s⁻¹ and the kon came out at 335000 M⁻¹ s⁻¹.

Regarding B16, the equilibrium dissociation constant (Kd) came to 3.35 nM, the off-rate (koff) was found to be 0.0013 s⁻¹ and the kon amounted to 388000 M⁻¹ s⁻¹.

As to B17, the Kd stood at 10.8 nM, the off-rate (koff) came out at 0.00344 s⁻¹ and the kon amounted to 317000 M⁻¹ s⁻¹.

Take B18: the Kd was determined as 2.37 nM, the koff came out at 0.000534 s⁻¹ and the kon is 225000 M⁻¹ s⁻¹.

A further experiment deals with T3, OX40 on a functional cell line …. In words: cell-based or functional assay.
For the molecule B2, the “IL-8 secretion by OX40 overexpressing functional cell line, EC50” value came out at 3 nM; the “IL-8 secretion by OX40 overexpressing functional cell line, best-fit value Bottom” value stood at 3590; the “IL-8 secretion by OX40 overexpressing functional cell line, best-fit value LogEC50” value is 0.476; the “IL-8 secretion by OX40 overexpressing functional cell line, best-fit value Top” value stood at 24600.

On to B3, for which the “IL-8 secretion by OX40 overexpressing functional cell line, EC50” value was 1.62 nM; the “IL-8 secretion by OX40 overexpressing functional cell line, best-fit value Bottom” value turned out to be 3950; the “IL-8 secretion by OX40 overexpressing functional cell line, best-fit value LogEC50” value came to 0.209; the “IL-8 secretion by OX40 overexpressing functional cell line, best-fit value Top” value was determined as 24200.

The next experiment has as its target T2, Recombinant human OX40-His protein. Put plainly: ELISA, plate coated with recombinant human OX-40 protein, antibody titrated. The procedure: Recombinant human OX-40 protein and recombinant monkey OX-40 protein were respectively used to detect the cross-recognition ability of humanized monoclonal antibodies for human/monkey OX-40 protein.
The ELISA plate (Nunc) was coated with 100 μl/well of […] recombinant OX40-His protein in PBS at 4° C. overnight. The plate was washed with PBS-T (0.05% Tween) and blocked with 200 μl/well of PBST containing 1% BSA at 37° C. for 0.5 hr. Then the blocking buffer was discarded, 100 μl of 1000 ng/ml purified antibody was added to the first well, 3-fold serial dilutions were made, and a total of 11 test concentration gradients were given. Then the system was incubated for 1 hr at room temperature. The plate was washed three times with PBST and incubated with 100 μl/well of horseradish peroxidase-conjugated goat anti-human Fab fragment-IgG (Fab-specific) (GenScript) at 37° C. for 0.5 hr. The plate was washed 5 times with PBST, and then a TMB developing solution (GenScript) was added and incubated at room temperature for 15 min in the dark. The reaction was terminated by adding 50 μl of 1 M HCl stop solution (Sigma). The plate was read at 450 nm on a microplate reader.
With B1, the EC50 came to 0.0138 µg/mL.

Turning to B2, the EC50 worked out at 0.0131 µg/mL.

In the case of B3, the 50% effective concentration (EC50) was 0.0161 µg/mL.

In general, EC50 refers to the concentration giving half of the maximal effect. As a reminder, the Kd is a measure of binding affinity in units of concentration. In general, koff refers to a measure of how fast the partners let go of each other. For orientation: kon means a measure of how fast the partners come together.

The values are drawn from US20220119540A1 (NANJING GENSCRIPT BIOTECH, published 2022).
